Test results: patent US20230124851A1 (INHIBRX LNC, published 2023)
Blank lines part the entries; values can stand above or below the binder they belong to.

Assays:
[1] = target: T1, CD3 on the surface of human T cells (human, UniProt P07766 23-207); assay: flow cytometry on primary human T cells; column head 'Affinity CD3'
T1 construct: whole, on cells; Part of the CD3/TCR complex on cells; also called CD3 epsilon
Protocol: (§1) Binding of exemplary B7H3-targeting constrained CD3 engaging constructs set forth in Table E3 to CD3 on the surface of primary T cells or B7H3-expressing cells (A375) was assessed by flow cytometry. The T cells were primary T-cells that were negatively enriched from PBMCs isolated from healthy human donor peripheral blood leukopaks. Bound construct was detected with fluorophore-conjugated secondary antibodies specific for the human Fc (anti-human IgG APC secondary antibody) and binding was measured by flow cytometry. Cells incubated with secondary antibody only served as negative controls. Binding was compared to Dual-affinity Re-targeting Antibody (DART)-monomeric Fc format targeting B7H3 and CD3 (DART-Fc B7H3xCD3; see e.g. WO2017030926A1).
(§2) Table E4 summarizes the affinity of exemplary molecules for B7H3 or CD3, as determined from flow cytometry, in these studies.

[2] = target: T2, human B7H3 (CD276) on the cell surface (human, UniProt Q5ZPR3 29-534); assay: flow cytometry titration on A375 cells (B7H3+); column head 'Affinity B7H3' (apparent)
T2 construct: B7H3 on A375 and other B7H3-positive or transfected cells
T2 sequence: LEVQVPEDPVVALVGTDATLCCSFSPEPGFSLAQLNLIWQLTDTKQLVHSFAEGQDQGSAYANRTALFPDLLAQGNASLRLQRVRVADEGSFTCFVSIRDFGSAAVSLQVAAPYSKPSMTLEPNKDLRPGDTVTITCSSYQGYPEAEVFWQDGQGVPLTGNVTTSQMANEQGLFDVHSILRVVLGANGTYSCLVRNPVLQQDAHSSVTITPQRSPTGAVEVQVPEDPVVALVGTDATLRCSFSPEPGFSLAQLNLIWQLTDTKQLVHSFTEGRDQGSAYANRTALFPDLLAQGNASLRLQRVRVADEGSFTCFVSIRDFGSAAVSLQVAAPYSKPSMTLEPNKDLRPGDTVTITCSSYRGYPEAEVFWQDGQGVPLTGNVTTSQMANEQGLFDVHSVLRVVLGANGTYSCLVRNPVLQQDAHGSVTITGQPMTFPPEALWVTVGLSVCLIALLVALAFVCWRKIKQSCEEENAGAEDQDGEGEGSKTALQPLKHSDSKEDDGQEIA
Protocol: as §1, §2

T1 sequence (P07766 23-207): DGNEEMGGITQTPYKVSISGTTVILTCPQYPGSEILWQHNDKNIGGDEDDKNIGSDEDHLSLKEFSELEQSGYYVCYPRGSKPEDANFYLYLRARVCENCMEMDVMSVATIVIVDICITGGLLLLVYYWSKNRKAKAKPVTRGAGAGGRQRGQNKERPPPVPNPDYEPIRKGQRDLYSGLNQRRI

- Kd [1]: > 200 nM
- Kd [2]: 0.539 nM
B1: cx3072 (bispecific antibody)
chain 1: EVQLVESGGGEVQPGGSLRLSCAASGSTFSSYHMSWFRQAPGKQREPVATSHHGGTTNYAGSVKGRFTISRDNAKNTVYLQMNTLRAEDTAVYYCKADHGYQGRGYWGQGTLVTVKPPGGGGDKTHTCPPCPAPELLGGPSVFLFPPKPKDTLMISRTPEVTCVVVDVSHEDPEVKFNWYVDGVEVHNAKTKPREEQYNSTYRVVSVLTVLHQDWLNGKEYKCKVSNKALPAPIEKTISKAKGQPREPQVYTLPPCRDELTKNQVSLWCLVKGFYPSDIAVEWESNGQPENNYKTTPPVLDSDGSFFLYSKLTVDKSRWQQGNVFSCSVMHEALHNHYTQKSLSLSPTGGGGGSGGGGGSGGGGGSEVQLVESGGGLVQPGGSLRLSCAASGFTFNTYAMNWVRQAPGKCLEWVARIRSKYNNYATYYADSVKGRFTISRDDAKNTLYLQMSSLRAEDTAVYYCVRHGNFGNSYVSWFAYWGQGTLVTVKPGGGGEVQLVESGGGEVQPGGSLRLSCAPSERTFSTYTMGWFRQAPGKEREFVAVVNWGGGSKYYAESVKGRFTISRDNAKNTVYLQMSSLRAEDTAVYYCAAGGAYSGPYYDTRQYTYWGQGTLVTVKP
chain 2: not shown
notes: IgG1-Hole 294, 298 or 446; VH13 237; VL10 265)

- Kd [1]: > 200 nM
- Kd [2]: 0.368 nM
B2: cx4136 (bispecific antibody)
chain 1: EVQLVESGGGEVQPGGSLRLSCAASGSTFSSYHMSWFRQAPGKQREPVATSHHGGTTNYAGSVKGRFTISRDNAKNTVYLQMNTLRAEDTAVYYCKADHGYQGRGYWGQGTLVTVKPDKTHTCPPCPAPGGPSVFLFPPKPKDTLMISRTPEVTCVVVDVSHEDPEVKFNWYVDGVEVHNAKTKPREEQYNSTYRVVSVLTVLHQDWLNGKEYKCKVSNKALPAPIEKTISKAKGQPREPQVYTLPPCRDELTKNQVSLWCLVKGFYPSDIAVEWESNGQPENNYKTTPPVLDSDGSFFLYSKLTVDKSRWQQGNVFSCSVMHEALHNHYTQKSLSLSPTGGGGGSGGGGGSGGGGGSEVQLVESGGGLVQPGGSLRLSCAASGFTFNTYAMNWVRQAPGKCLEWVARIRSKYNNYATYYADSVKGRFTISRDDAKNTLYLQMSSLRAEDTAVYYCVRHGNFGNSYVSWFAYWGQGTLVTVKPEVQLVESGGGEVQPGGSLRLSCAASGSTFSSYHMSWFRQAPGKQREPVATSHHGGTTNYAGSVKGRFTISRDNAKNTVYLQMNTLRAEDTAVYYCKADHGYQGRGYWGQGTLVTVKP
chain 2: DKTHTCPPCPAPGGPSVFLFPPKPKDTLMISRTPEVTCVVVDVSHEDPEVKFNWYVDGVEVHNAKTKPREEQYNSTYRVVSVLTVLHQDWLNGKEYKCKVSNKALPAPIEKTISKAKGQPREPQVCTLPPSRDELTKNQVSLSCAVKGFYPSDIAVEWESNGQPENNYKTTPPVLDSDGSFFLVSKLTVDKSRWQQGNVFSCSVMHEALHNRYTQKSLSLSPTGGGGGSGGGGGSGGGGGSQAVVTQEPSLTVSPGGTVTLTCGSSTGAVTTSNYANWVQQKPGQAFRGLIGGTNKRAPGVPARFSGSLLGGKAALTISGAQPEDEADYYCALWYSNHWVFGCGTKLTVL

- Kd [1]: > 200 nM
- Kd [2]: 0.375 nM
B3: cx4137 (bispecific antibody)
chain 1: B2 chain 1
chain 2: DKTHTCPPCPAPGGPSVFLFPPKPKDTLMISRTPEVTCVVVDVSHEDPEVKFNWYVDGVEVHNAKTKPREEQYNSTYRVVSVLTVLHQDWLNGKEYKCKVSNKALPAPIEKTISKAKGQPREPQVCTLPPSRDELTKNQVSLSCAVKGFYPSDIAVEWESNGQPENNYKTTPPVLDSDGSFFLVSKLTVDKSRWQQGNVFSCSVMHEALHNRYTQKSLSLSPTGGGGGSGGGGGSGGGGGSQAVVTQEPSLTVSPGGTVTLTCGSSTGAVTTSNYANWVQQKPGQAFRGLIGGTNKRAPGVPARFSGSLLGGKAALTISGAQPEDEADYYCALWYSNHWVFGCGTKLTVLEVQLLESGGGEVQPGGSLRLSCAASGFSFSINAMGWYRQAPGKRREFVAAIESGRNTVYAESVKGRFTISRDNAKNTVYLQMSSLRAEDTAVYYCGLLKGNRVVSPSVAYWGQGTLVTVKP
notes: chain 2 ends in the 4-1BB sdAb RH3v5-1
